From patent US20210024639A1 (AGOMAB THERAPEUTICS, published 2021)
One block for each binder: values may come before it.

Columns and labels:
[1] = target: T1, native human MET on living human cells (human, UniProt P08581 25-1390); assay: cell-based or functional assay
[2] = target: T2, native mouse MET on living mouse cells (mouse, UniProt P16056 25-1379); assay: cell-based or functional assay
[3] = target: T1, native human MET on living human cells; assay: cell-based or functional assay; remark: listed apart in the source
[4] = target: T2, native mouse MET on living mouse cells; assay: cell-based or functional assay; remark: listed apart in the source
[5] = target: T1, native human MET on living human cells; assay: flow cytometry, A549 cells
Method: (§1) We also analysed whether chimeric anti-MET antibodies bound to native human and mouse MET in living cells. […] Antibody binding to cells was analysed by flow cytometry using phycoerythrin-conjugated anti-human IgG1 antibodies (eBioscience) and a CyAn ADP analyser (Beckman Coulter). As a positive control for human MET binding, we used a commercial mouse anti-human MET antibody (R&D Systems) and phycoerythrin-conjugated anti-mouse IgG1 antibodies (eBioscience). As a positive control for mouse MET binding we used a commercial goat anti-mouse MET antibody (R&D Systems) and phycoerythrin-conjugated anti-goat IgG1 antibodies (eBioscience). […] Consistent with the data obtained in ELISA, maximal binding (EMAX) varied depending on antibody, but was similar in human and mouse cells.

[6] = target: T2, native mouse MET on living mouse cells; assay: flow cytometry, MLP29 cells
Method: as §1

[7] = target: T3, human MET-Fc chimeric protein (R&D Systems) (human, UniProt P08581 25-932); assay: competition ELISA, hMET-Fc in solid phase, competitor 0.3 nM biotinylated hHGF
T3 construct: extracellular domain; bought (R&D Systems); also called hMET; not shown: Fc portion of human IgG1
T3 sequence (P08581 25-932, change not shown): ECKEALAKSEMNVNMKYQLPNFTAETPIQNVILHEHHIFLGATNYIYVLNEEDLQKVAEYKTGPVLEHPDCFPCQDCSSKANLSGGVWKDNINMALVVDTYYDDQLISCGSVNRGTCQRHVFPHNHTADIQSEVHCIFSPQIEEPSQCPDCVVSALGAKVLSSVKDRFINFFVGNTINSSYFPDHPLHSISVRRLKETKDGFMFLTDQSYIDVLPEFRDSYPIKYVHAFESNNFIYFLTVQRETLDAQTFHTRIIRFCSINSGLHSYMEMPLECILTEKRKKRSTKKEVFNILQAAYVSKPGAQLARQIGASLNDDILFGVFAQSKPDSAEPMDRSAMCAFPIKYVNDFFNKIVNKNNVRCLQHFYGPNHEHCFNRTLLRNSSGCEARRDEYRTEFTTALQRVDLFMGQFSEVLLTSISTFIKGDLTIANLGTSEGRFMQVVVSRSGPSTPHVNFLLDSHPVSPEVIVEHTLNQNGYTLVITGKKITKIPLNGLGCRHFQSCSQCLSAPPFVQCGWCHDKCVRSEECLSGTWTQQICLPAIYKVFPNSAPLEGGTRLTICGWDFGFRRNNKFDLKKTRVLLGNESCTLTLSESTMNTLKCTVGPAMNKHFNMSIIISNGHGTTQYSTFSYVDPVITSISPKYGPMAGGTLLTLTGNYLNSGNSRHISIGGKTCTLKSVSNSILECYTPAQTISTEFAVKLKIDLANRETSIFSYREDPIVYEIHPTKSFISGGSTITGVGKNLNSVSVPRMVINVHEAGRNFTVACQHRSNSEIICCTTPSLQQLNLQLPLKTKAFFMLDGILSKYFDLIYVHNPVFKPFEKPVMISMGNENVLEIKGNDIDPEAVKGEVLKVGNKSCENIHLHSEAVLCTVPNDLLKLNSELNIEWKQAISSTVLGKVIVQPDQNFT
Method: (§2) To investigate along this line, we tested the competition between mAbs and HGF by ELISA. Recombinant human and mouse HGF (R&D Systems) were biotinylated at the N-terminus using NHS-LC-biotin (Thermo Scientific). MET-Fc protein, either human or mouse (R&D Systems), was immobilized in solid phase and then exposed to 0.3 nM biotinylated HGF, either human or mouse, in the presence of increasing concentrations of antibodies (0-120 nM).
(§3) A MET-Fc chimeric protein (either human or mouse) was immobilized in solid phase and exposed to a fixed concentration of biotinylated HGF (either human or mouse), in the presence of increasing concentrations of antibodies. […] Antibody-HGF competition is expressed as IC₅₀ (the concentration that achieves 50% competition) and IMAX (the maximum % competition reached at saturation).

[8] = target: T4, mouse MET-Fc chimeric protein (R&D Systems) (mouse, UniProt P16056 25-929, limits assumed); assay: competition ELISA, mMET-Fc in solid phase, competitor 0.3 nM biotinylated mHGF
T4 construct: bought (R&D Systems); also called mMET; not shown: Fc
Method: as §2, §3

[9] = target: T5, human MET extracellular domain (ECD) (human, UniProt P08581 25-932); assay: ELISA, periplasmic Fab on MET ECD
T5 construct: range 1-932; recombinant ECD; also called hMET; human MET ECD
T5 sequence (P08581 25-932 limits assumed, form in doubt): as the sequence (P08581 25-932, change not shown) above
Method: (§4) Fab-expressing phages from the libraries described above were produced according to standard phage display protocols. For selection, phages were first adsorbed to immobilized recombinant human MET ECD, washed, and then eluted using trypsin. After two cycles of selection with human MET ECD, two other cycles were performed in the same fashion using mouse MET ECD. In parallel, we also selected phages alternating a human MET ECD cycle with a mouse MET ECD cycle, for a total of four cycles. Phages selected by the two approaches were pooled together and then used to infect TG1 E. coli. Individual colonies were isolated and secretion of Fabs was induced using IPTG (Fermentas). The Fab-containing periplasmic fraction of bacteria was collected and tested for its ability to bind human and mouse MET ECD by Surface Plasmon Resonance (SPR). Human or mouse MET ECD was immobilized on a CM-5 chip using amine coupling in sodium acetate buffer (GE Healthcare). The Fab-containing periplasmic extracts were loaded into a BIACORE 3000 apparatus (GE Healthcare) with a flow rate of 30 μl/min. The Fab off-rates (koff) were measured over a two minute period. Binding of Fabs to human and mouse MET was further characterized by ELISA using MET ECD in solid phase and periplasmic crude extract in solution.
(§5) TABLE 7 Fabs binding to both human MET (hMET) and mouse MET (mMET). Fabs are grouped in families based on their VH CDR3 sequence. Binding of Fabs to human and mouse MET ECD was determined by Surface Plasmon Resonance (SPR) and by ELISA. SPR values represent the koff (s⁻¹). ELISA values represent the Optical Density (OD) at 450 nm (AU, arbitrary units). Both SPR and ELISA were performed using crude periplasmic extracts. Fab concentration in the extract was not determined. Values are the mean of three independent measurements.

[10] = target: T6, mouse MET extracellular domain (ECD) (mouse, UniProt P16056 25-931); assay: ELISA, periplasmic Fab on MET ECD
T6 construct: range 1-931; recombinant ECD; also called mMET; mouse MET ECD
Method: as §4, §5

T1 sequence (P08581 25-1390): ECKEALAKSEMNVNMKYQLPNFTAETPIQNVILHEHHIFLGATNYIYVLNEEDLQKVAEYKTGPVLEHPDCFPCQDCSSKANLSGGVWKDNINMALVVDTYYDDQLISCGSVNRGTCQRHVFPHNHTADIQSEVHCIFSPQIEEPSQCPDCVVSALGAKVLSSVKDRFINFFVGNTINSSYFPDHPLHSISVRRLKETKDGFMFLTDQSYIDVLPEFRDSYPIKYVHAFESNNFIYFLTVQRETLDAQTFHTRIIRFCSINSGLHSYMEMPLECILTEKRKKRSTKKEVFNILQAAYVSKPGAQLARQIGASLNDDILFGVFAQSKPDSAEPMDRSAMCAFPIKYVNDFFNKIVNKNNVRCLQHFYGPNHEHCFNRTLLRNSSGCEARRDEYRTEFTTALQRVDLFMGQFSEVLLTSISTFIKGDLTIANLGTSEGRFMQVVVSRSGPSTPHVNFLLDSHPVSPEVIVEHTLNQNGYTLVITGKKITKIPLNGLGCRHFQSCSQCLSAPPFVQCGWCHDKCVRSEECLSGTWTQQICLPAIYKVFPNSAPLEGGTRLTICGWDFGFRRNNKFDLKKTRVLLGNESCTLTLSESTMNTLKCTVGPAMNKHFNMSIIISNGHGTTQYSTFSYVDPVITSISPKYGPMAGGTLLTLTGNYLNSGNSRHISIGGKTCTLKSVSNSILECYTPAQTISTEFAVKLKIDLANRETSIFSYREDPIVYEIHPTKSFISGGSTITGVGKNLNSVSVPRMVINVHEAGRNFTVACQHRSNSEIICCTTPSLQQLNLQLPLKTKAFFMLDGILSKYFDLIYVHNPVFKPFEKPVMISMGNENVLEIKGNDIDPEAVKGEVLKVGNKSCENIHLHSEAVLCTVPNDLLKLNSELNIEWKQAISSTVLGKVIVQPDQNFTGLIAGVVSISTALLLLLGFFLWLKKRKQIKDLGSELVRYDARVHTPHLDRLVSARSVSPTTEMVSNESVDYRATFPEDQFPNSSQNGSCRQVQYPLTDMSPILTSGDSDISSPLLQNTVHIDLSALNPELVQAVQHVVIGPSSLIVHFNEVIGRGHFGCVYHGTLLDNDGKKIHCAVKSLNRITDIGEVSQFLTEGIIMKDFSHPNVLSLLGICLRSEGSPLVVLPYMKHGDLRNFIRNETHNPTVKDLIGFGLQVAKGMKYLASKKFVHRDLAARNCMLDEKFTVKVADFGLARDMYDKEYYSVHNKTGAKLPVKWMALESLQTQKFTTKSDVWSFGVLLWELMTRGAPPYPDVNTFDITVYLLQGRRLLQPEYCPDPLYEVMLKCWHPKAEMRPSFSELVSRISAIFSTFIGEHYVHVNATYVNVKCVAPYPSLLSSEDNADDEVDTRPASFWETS

- cell scattering score, HPAF-II, 0.001 nM [1]: 0 score 0-4
- cell scattering score, HPAF-II, 0.004 nM [1]: 0 score 0-4
- cell scattering score, HPAF-II, 0.012 nM [1]: 0 score 0-4
- cell scattering score, HPAF-II, 0.037 nM [1]: 0 score 0-4
- cell scattering score, HPAF-II, 0.111 nM [1]: 0 score 0-4
- cell scattering score, HPAF-II, 0.333 nM [1]: 0 score 0-4
- cell scattering score, HPAF-II, 1.000 nM [1]: 1 score 0-4
- cell scattering score, HPAF-II, 3.000 nM [1]: 2 score 0-4
- cell scattering score, HPAF-II, 9.000 nM [1]: 3 score 0-4
- cell scattering score, MLP29, 0.001 nM [2]: 0 score 0-4
- cell scattering score, MLP29, 0.004 nM [2]: 0 score 0-4
- cell scattering score, MLP29, 0.012 nM [2]: 0 score 0-4
- cell scattering score, MLP29, 0.037 nM [2]: 0 score 0-4
- cell scattering score, MLP29, 0.111 nM [2]: 0 score 0-4
- cell scattering score, MLP29, 0.333 nM [2]: 0 score 0-4
- cell scattering score, MLP29, 1.000 nM [2]: 1 score 0-4
- cell scattering score, MLP29, 3.000 nM [2]: 2 score 0-4
- cell scattering score, MLP29, 9.000 nM [2]: 3 score 0-4
- EMAX (% relative to control) [5]: 156%
- EMAX (% relative to control) [6]: 172%
- IMAX (maximum % competition) [7]: 77.3%
- IMAX (maximum % competition) [8]: 72.8%
B1: chimeric llama-human IgG1 mAb 72F8 (antibody, V domains shown)
VH: ELQLVESGGGLVQPGGSLRLSCAASGFTFSNYVMSWVRQAPGKGLEWVSDTNSGGSTSYADSVKGRFTISRDNAKNTLYLQMNSLKPEDTALYYCARSFFYGMNYWGKGTQVTVSS
VL: QSALTQPPSLSASPGSSVRLTCTLSSGNNIGSYDISWYQQKAGSPPRYLLNYYTDSRKHQDSGVPSRFSGSKDASANAGLLLISGLQPEDEADYYCSAYKSGSYRWVFGGGTHVTVL
- protection from staurosporine, viability EC50, MCF10A [3]: > 32 nM
- protection from staurosporine, viability EMAX, MCF10A [3]: 35.8%
- protection from staurosporine, viability EC50, MLP29 [4]: > 32 nM
- protection from staurosporine, viability EMAX, MLP29 [4]: 43.8%

- ELISA OD450 [9]: 3.38 AU
- ELISA OD450 [10]: 3.08 AU
B2: Fab 72F8 (Fab, V domains shown)
VH: ELQLVESGGGLVQPGGSLRLSCAASGFTFSNYVMSWVRQAPGKGLEWVSDTNSGGSTSYADSVKGRFTISRDNAKNTLYLQMNSLKPEDTALYYCARSFFYGMNYWGKGTQVTVSS
VL: QSALTQPPSLSASPGSSVRLTCTLSSGNNIGSYDISWYQQKAGSPPRYLLNYYTDSRKHQDSGVPSRFSGSKDASANAGLLLISGLQPEDEADYYCSAYKSGSYRWVFGGGTHVTVL
notes: llama Fab (VH-CH1, lambda VL-CL) with MYC flag, crude periplasmic extract

- ELISA OD450 [9]: 3.2 AU
- ELISA OD450 [10]: 3.08 AU
B9: Fab 76G7 (Fab, V domains shown)
VH: QVQLVESGGNLVQPGGSLRLSCAASGFTFSNYYMSWVRQAPGKGLEWVSDIYSDGSTTWYSDSVKGRFTISRDNAKNTLSLQMNSLKSEDTAVYYCARVKIYPGGYDAWGQGTQVTVSS
VL: QAGLTQPPSVSGSPGKTVTISCAGNSSDVGYGNYVSWYQQFPGMAPKLLIYLVNKRASGITDRFSGSKSGNTASLTISGLQSEDEADYYCASYTGSNNIVFGGGTHLTVL
notes: as for B2

- ELISA OD450 [9]: 3.7 AU
- ELISA OD450 [10]: 3.7 AU
B10: Fab 76H10 (Fab, V domains shown)
VH: QLQLVESGGGLVQPGGSLRVSCTASGFTFNTYYMTWVRQAPGKGLEWVSDINSGGGTYYADSVKGRFTISRDNAKNTLYLQMNSLKPEDTALYYCVRVRIWPVGYDYWGQGTQVTVSS
VL: QAVVTQEPSLSVSPGGTVTLTCGLSSGSVTTSNYPGWFQQTPGQAPRTLIYNTNNRHSGVPSRFSGSISGNKAALTITGAQPEDEADYYCSLYTGSYTTVFGGGTHLTVL
notes: as for B2

- ELISA OD450 [9]: 2.98 AU
- ELISA OD450 [10]: 2.92 AU
B11: Fab 74C8 (Fab, V domains shown)
VH: EVQLVESGGGLVQPGGSLRLSCAASGFTFRNYHMSWVRQVPGKGFEWISDINSAGGSTYYADSVKGRFTISRDNAKNTLYLEMNSLKPEDTALYYCARVNVWGVNYWGKGTLVSVSS
VL: QTVVTQEPSLSVSPGGTVTLTCGLSSGSVTTSNYPGWFQQTPGQAPRTLIYNTNSRHSGVPSRFSGSISGNKAALTITGAQPEDEADYYCSLYPGSYTNVFGGGTHLTVL
notes: as for B2

Continued, binder first:

B3: Fab 71A3 (Fab, V domains shown)
VH: EVQLVESGGGLVQPGGSLRLSCAASGFSFKDYDITWVRQAPGKGLEWVSTITSRSGSTSYVDSVKGRFTISGDNAKNTLYLQMNSLKPEDTAVYYCAKVYATTWDVGPLGYGMDYWGKGTLVTVSS
VL: SYELTQPSALSVTLGQTAKITCQGGSLGSSYAHWYQQKPGQAPVLVIYDDDSRPSGIPERFSGSSSGGTATLTISGAQAEDEGDYYCQSADSSGNAAVFGGGTHLTVL
notes: as for B2
- ELISA OD450 [9]: 0.581 AU
- ELISA OD450 [10]: 0.524 AU

B4: Fab 71G3 (Fab, V domains shown)
VH: QVQLVESGGGLVQPGGSLRVSCAASGFTFSTYYMSWVRQAPGKGLEWVSDIRTDGGTYYADSVKGRFTMSRDNAKNTLYLQMNSLKPEDTALYYCARTRIFPSGYDYWGQGTQVTVSS
VL: QAVVTQEPSLSVSPGGTVTLTCGLSSGSVTTSNYPGWFQQTPGQAPRTLIYNTNSRHSGVPSRFSGSISGNKAALTIMGAQPEDEADYYCSLYPGSTTVFGGGTHLTVL
notes: as for B2
- ELISA OD450 [9]: 3.46 AU
- ELISA OD450 [10]: 3.44 AU

B5: Fab 71D6 (Fab, V domains shown)
VH: ELQLVESGGGLVQPGGSLRLSCAASGFTFSSYGMSWVRQAPGKGLEWVSAINSYGGSTSYADSVKGRFTISRDNAKNTLYLQMNSLKPEDTAVYYCAKEVRADLSRYNDYESYDYWGQGTQVTVSS
VL: QPVLNQPSALSVTLGQTAKITCQGGSLGARYAHWYQQKPGQAPVLVIYDDDSRPSGIPERFSGSSSGGTATLTISGAQAEDEGDYYCQSADSSGSVFGGGTHLTVL
notes: as for B2
- ELISA OD450 [9]: 3.26 AU
- ELISA OD450 [10]: 3.07 AU

B6: Fab 71C3 (Fab, V domains shown)
VH: QLQLVESGGGLVQPGGSLRLSCAASGFTFSSHAMSWVRQAPGKGLEWVSAINSGGGSTSYADSVKGRFTISRDNAKNTLYLQMNSLKPEDTAVYYCAKELRFDLARYTDYEAWDYWGQGTQVTVSS
VL: SYELTQPSALSVTLGQTAKITCQGGSLGSSYAHWYQQKPGQAPVLVIYDDDSRPSGIPERFSGSSSGGTATLTISGAQAEDEGDYYCQSADSSGNAAVFGGGTHLTVL
notes: as for B2
- ELISA OD450 [9]: 1.65 AU
- ELISA OD450 [10]: 1.64 AU

B7: Fab 71D4 (Fab, V domains shown)
VH: ELQLVESGGGLVQPGGSLRLSCAASGFTFSGYGMSWVRQAPGKGLEWVSDINSGGGSTSYADSVKGRFTISRDNAKNTLYLQMNSLKPEDTAVYYCAKDMRLYLARYNDYEAWDYWGQGTQVTVSS
VL: SSALTQPSALSVTLGQTAKITCQGGSLGSSYAHWYQQKPGQAPVLVIYDDDSRPSGIPERFSGSSSGGTATLTISGAQAEDEGDYYCQSADSSGNAAVFGGGTHLTVL
notes: as for B2
- ELISA OD450 [9]: 0.311 AU
- ELISA OD450 [10]: 0.307 AU

B8: Fab 71G2 (Fab, V domains shown)
VH: EVQLQESGGGLVQPGGSLRLSCAASGFTFSIYDMSWVRQAPGKGLEWVSTINSDGSSTSYVDSVKGRFTISRDNAKNTLYLQMNSLKPEDTAVYYCAKVYGSTWDVGPMGYGMDYWGKGTLVTVSS
VL: SSALTQPSALSVSLGQTARITCQGGSLGSSYAHWYQQKPGQAPVLVIYGDDSRPSGIPERFSGSSSGGTATLTISGAQAEDEDDYYCQSTDSSGNTVFGGGTRLTVL
notes: as for B2
- ELISA OD450 [9]: 0.561 AU
- ELISA OD450 [10]: 0.543 AU
